Results on two molecules are retold here after patent publication US20080274950A1 (BABRAHAM INSTITUTE, published 2008).

Experiment [1] addresses T1, mouse N-cadherin on L cells after removal of the prodomain with trypsin (mouse, UniProt P15116 160-906).
T1 construct: whole, on cells; Removal of the prodomain was almost complete by western blot; also called L cells after treatment; trypsin-treated L cell transfectants
T1 sequence (looked up): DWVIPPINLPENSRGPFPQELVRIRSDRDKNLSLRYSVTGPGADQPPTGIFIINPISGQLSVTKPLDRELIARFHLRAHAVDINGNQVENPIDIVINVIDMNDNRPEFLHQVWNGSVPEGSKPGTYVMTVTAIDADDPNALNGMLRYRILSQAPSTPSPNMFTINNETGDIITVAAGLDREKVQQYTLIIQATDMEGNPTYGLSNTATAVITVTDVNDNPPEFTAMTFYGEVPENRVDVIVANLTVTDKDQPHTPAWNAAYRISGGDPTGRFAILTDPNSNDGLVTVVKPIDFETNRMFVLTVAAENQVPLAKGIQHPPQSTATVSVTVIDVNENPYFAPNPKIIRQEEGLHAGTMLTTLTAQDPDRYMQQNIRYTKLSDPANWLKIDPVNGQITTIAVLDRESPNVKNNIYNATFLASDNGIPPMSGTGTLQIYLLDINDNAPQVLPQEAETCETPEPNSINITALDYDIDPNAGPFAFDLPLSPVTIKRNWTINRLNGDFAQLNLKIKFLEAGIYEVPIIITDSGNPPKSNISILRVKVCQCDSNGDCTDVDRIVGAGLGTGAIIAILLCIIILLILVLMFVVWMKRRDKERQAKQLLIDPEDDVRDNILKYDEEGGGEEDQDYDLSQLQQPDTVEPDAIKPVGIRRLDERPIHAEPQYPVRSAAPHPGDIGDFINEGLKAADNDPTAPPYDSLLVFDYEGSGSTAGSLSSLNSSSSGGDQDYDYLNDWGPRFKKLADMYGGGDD
The experiment in a line: adhesion of trypsin-treated L cell transfectants to coated N-cadherin Fc. The procedure: Adhesion tests were conducted substantially as described in Example 1. Briefly, K562 Cells or L cells transfected with wild type or mutant N-cadherin were allowed to settle for 45 minutes at 37° C. onto N-cadherin Fc fusion proteins coated at 1 μg/ml to a 96 well plate. Non-adherent cells were then washed off and residual adherent cells were quantitated by measuring acid phosphatase activity. Assays were conducted in quadruplicate and results are expressed as % cells adhering +/−SEM.
L cells expressing mouse N-cadherin with an uncleaved prodomain (see Koch et al., 2004) were obtained from Dr Weisong Shan (Montreal Neurological Institute). The normal furin cleavage site, RQKR, had been replaced with a Factor Xa site, IEGR, to give the correct N-terminus after digestion. […] L cells suspended in HBSS containing 0.1% BSA were treated with 0.01% trypsin (Sigma, Type XI) in the presence of 2 mM Ca²⁺ for 10 minutes at 37° C. and the digestion was then quenched with soyabean trypsin inhibitor, 0.5 mg per ml (Sigma, Type I-S). Cells were then washed and tested for adhesion to N-cadherin Fc-fusion protein. To check for complete removal of the prodomain, the cells were lysed in SDS sample buffer and the cadherin analysed by SDS PAGE under reducing conditions on a 4-12% gradient gel. […]

In experiment [2] the target is T2, full length chicken N-cadherin with the N-terminus extended by two glycine residues (GG) expressed on K562 … (chicken, UniProt P10288 165-912).
T2 construct: whole, on cells; also called cells expressing the GG N-terminal extension mutant; K562 GG
T2 sequence: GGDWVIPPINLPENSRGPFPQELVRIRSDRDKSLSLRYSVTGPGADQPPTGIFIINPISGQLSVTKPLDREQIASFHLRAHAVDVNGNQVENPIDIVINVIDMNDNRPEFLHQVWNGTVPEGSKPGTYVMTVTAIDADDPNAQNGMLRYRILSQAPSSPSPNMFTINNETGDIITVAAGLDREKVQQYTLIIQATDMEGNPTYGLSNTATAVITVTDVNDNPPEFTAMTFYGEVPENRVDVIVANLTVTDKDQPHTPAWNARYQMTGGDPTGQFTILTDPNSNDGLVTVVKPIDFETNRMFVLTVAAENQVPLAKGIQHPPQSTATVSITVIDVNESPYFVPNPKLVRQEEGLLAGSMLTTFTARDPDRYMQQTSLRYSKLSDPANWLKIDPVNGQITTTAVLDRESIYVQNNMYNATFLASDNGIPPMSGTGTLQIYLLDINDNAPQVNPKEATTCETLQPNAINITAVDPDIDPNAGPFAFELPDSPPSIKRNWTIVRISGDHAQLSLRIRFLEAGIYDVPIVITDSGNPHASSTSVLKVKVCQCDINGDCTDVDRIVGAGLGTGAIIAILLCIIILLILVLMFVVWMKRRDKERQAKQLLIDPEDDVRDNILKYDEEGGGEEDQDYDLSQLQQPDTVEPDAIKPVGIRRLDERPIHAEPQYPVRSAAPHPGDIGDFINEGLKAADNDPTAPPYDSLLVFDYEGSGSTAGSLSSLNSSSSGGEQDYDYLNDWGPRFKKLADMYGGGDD
The experiment in a line: adhesion of K562 transfectants to coated N-cadherin Fc. In outline: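 K562 (or L) cells transfected with wild-type or mutant N-cadherin settled 45 min at 37 °C onto N-cadherin Fc coated at 1 µg/ml. After non-adherent cells were washed off, bound cells were quantified by acid phosphatase activity. Values are % cells adhering ± SEM, quadruplicate.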

B1: wild type chicken N-cadherin-Fc fusion protein, dimeric (linked by disulphide bonds at the Ig hinge region) (Fc fusion, UniProt P10288 165-729, looked up)
chain: DWVIPPINLPENSRGPFPQELVRIRSDRDKSLSLRYSVTGPGADQPPTGIFIINPISGQLSVTKPLDREQIASFHLRAHAVDVNGNQVENPIDIVINVIDMNDNRPEFLHQVWNGTVPEGSKPGTYVMTVTAIDADDPNAQNGMLRYRILSQAPSSPSPNMFTINNETGDIITVAAGLDREKVQQYTLIIQATDMEGNPTYGLSNTATAVITVTDVNDNPPEFTAMTFYGEVPENRVDVIVANLTVTDKDQPHTPAWNARYQMTGGDPTGQFTILTDPNSNDGLVTVVKPIDFETNRMFVLTVAAENQVPLAKGIQHPPQSTATVSITVIDVNESPYFVPNPKLVRQEEGLLAGSMLTTFTARDPDRYMQQTSLRYSKLSDPANWLKIDPVNGQITTTAVLDRESIYVQNNMYNATFLASDNGIPPMSGTGTLQIYLLDINDNAPQVNPKEATTCETLQPNAINITAVDPDIDPNAGPFAFELPDSPPSIKRNWTIVRISGDHAQLSLRIRFLEAGIYDVPIVITDSGNPHASSTSVLKVKVCQCDINGDCTDVDRIVGAGLGTG
notes: extracellular domain; also called dimeric N-cadherin-Fc; wild type N-cadherin; not shown: hinge region, CH2 and CH3 domains of human IgG1 heavy chain (vector pIgSig)
As to B1, the binding result in experiment [1] is given as “binds”.

B2: chicken N-cadherin-Fc fusion protein with the mutation D134A, dimeric (Fc fusion, UniProt P10288 165-728, looked up)
chain: DWVIPPINLPENSRGPFPQELVRIRSDRDKSLSLRYSVTGPGADQPPTGIFIINPISGQLSVTKPLDREQIASFHLRAHAVDVNGNQVENPIDIVINVIDMNDNRPEFLHQVWNGTVPEGSKPGTYVMTVTAIAADDPNAQNGMLRYRILSQAPSSPSPNMFTINNETGDIITVAAGLDREKVQQYTLIIQATDMEGNPTYGLSNTATAVITVTDVNDNPPEFTAMTFYGEVPENRVDVIVANLTVTDKDQPHTPAWNARYQMTGGDPTGQFTILTDPNSNDGLVTVVKPIDFETNRMFVLTVAAENQVPLAKGIQHPPQSTATVSITVIDVNESPYFVPNPKLVRQEEGLLAGSMLTTFTARDPDRYMQQTSLRYSKLSDPANWLKIDPVNGQITTTAVLDRESIYVQNNMYNATFLASDNGIPPMSGTGTLQIYLLDINDNAPQVNPKEATTCETLQPNAINITAVDPDIDPNAGPFAFELPDSPPSIKRNWTIVRISGDHAQLSLRIRFLEAGIYDVPIVITDSGNPHASSTSVLKVKVCQCDINGDCTDVDRIVGAGLGT
notes: extracellular domain; also called D134A mutant; N-cadherin Fc mutant D134A; not shown: hinge region, CH2 and CH3 domains of human IgG1 heavy chain (vector pIgSig)
For B2, the binding result in experiment [2] is “no binding (tested: Fc fusion protein coated at 1 µg/ml)”.
